Data reported in the supplement of paper PMC10598134.
± gives the standard deviation.

Test: collision cross section of unmodified peptide (TIMS, N2, iRT-aligned); higher = larger / more extended gas-phase ion
Protocol: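 Unmodified synthetic counterpart peptides (ProteomeTools / JPT), analysed by nanoLC-TIMS-QTOF (dda-PASEF). 1/K0 was aligned run-wise to spiked iRT peptides and converted to CCS in N2 (Mason-Schamp). Values are the mean of 1-3 technical replicates for the most abundant feature at each charge state. The same unmodified peptide is repeated across rows and is averaged.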

Substance	collision cross section (charge state: 2) [Å²]	collision cross section (charge state: 3) [Å²]
GEKGNPGVGTQGPR	370.3 ± 0.92	437.26 ± 1.3
GEPGLPGHPGK	338.84 ± 0.58	
VGLQVVAVKAPGFGDNR	462.44 ± 2.5	487.54 ± 2.5
AVAITQSPSSVR	368.2 ± 0.14	
LGDVYVNDAFGTAHR	434.69 ± 0.66	501.14 ± 0.88
ASCLYGQLPK	363.85 ± 0.6	
PGSPGPPGSPGPR	347.56 ± 0.41	430.78 ± 12
PGPKGEAGPTGPQGEPGVR	431.75 ± 0.38	479.17 ± 5.1
TQDQISNIKYHEEFEK	459.39	550.5 ± 0.31
LSFGLEDEPLETATK	426.44 ± 0.65	496.99 ± 0.21
KFGVLSDNFK	368.49 ± 1.5	446.92 ± 3.4
GPPRGGPGGELPR	366.24 ± 0.38	471.24 ± 3.4
GDYDLNAVR	340.54 ± 0.15	
TFGKAAGPSLSHTSGGTQSK	462.76 ± 2.3	520.05 ± 2.3
PDTQYTGR	315.91 ± 0.73	
SITHSTVGSKGEK	404.31 ± 1.8	464.75 ± 3.9
GFLQPPPLRQPR	397.31 ± 0.59	451.27 ± 5.3
GAPGGRGAQLSVPSPAR	428.52	492.17 ± 0.93
VHATSTYR	325.88 ± 0.49	398.18 ± 1.6
LGNDFHTNKR	369.4 ± 1.5	431.93 ± 3.7
DLATVYVDVLK	382.78 ± 0.75	
IEDEQALGSQLQK	401.79 ± 0.14	493.77 ± 0.29
PSIHGGSGGRGVSVSSAR		503.12 ± 0.69
EVVKPVPITSPAVSK	412.92 ± 0.57	534.95 ± 0.86
GQQGEPGPK	313.75 ± 0.93	
VDATADYICK	353.92 ± 0.79	

Substance	collision cross section (charge state: 2) [Å²]	collision cross section (charge state: 3) [Å²]
SGGYGGSRDYYSSR	399.15 ± 1.2	474.66 ± 1.4
TLTPASSPVSSPSK	389.93 ± 0.025	
DSLGVSFPEELACK	418.18 ± 0.66	
PSVSTKLISK	360.6 ± 1.3	423.25 ± 3.8
IHNAENIQPGEQKYEYK	475.76 ± 2.4	534.89 ± 9.6
AAQASDLEKIHLDEK	447.85 ± 1.2	506 ± 5.5
HLRGHGPQPPLR	396.64	492.83 ± 0.94
ALASIDSKLNQAK	410.25 ± 2	481.52 ± 3.4
LPPGALAHRLPTTGYLVYR		556.45 ± 1.4
DFSLTSSSQTPGATK	412.17 ± 0.66	461.25 ± 8.8
GSYLGGYSAGRGIYSR	455.17	483.36 ± 2.1
GEQGEPGAPGIRTGIQGLK	452.7 ± 0.99	505.34 ± 2.1
STCTYVGAAK	334.15 ± 0.48	
SGKFTQQDIDEAK	412.77 ± 2.3	486.03 ± 4.9
PARGLYSR	333.72 ± 0.072	420.97 ± 6
LEKDYQPGITFIVVQK	447.32 ± 0.59	488.88 ± 0.86
GPPGPPGRPGNSGIR		436.52 ± 1.7
SGGRGVSVSSAR	352.78 ± 0.057	442.14 ± 3.7
TVTNAVVTVPAYFNDSQR	471.11 ± 0.99	576.65 ± 1.1
LELAQYR	324.63 ± 0.15	
DYSAPVNFISAGLKK	443.09 ± 2.3	512.68 ± 2.7
PGGLGSSSLYGLGASRPR	472.2 ± 0.073	533.78 ± 0.86
DNNNSNNRGSYNR		461.19 ± 2.6
LDLSSLAYSGK	363.06 ± 1.2	
SVGGSGGGSFGDNLVTR	413.69 ± 1.1	
EGFSIPVSADGFK	384.97 ± 0.14	

Substance	collision cross section (charge state: 2) [Å²]	collision cross section (charge state: 3) [Å²]
STNVTVAAARGIK	399.07 ± 1.1	480.75 ± 3.1
GIGRGTVQALHATGAR	428.55	501.79 ± 0.73
YHEDIFGLTLR	388.91 ± 0.75	462.33 ± 2
IDLPAENSNSETIIITGKR	488.02	565.88 ± 0.52
TTGFYSGFSEVAEKR	454.17 ± 3.2	530.82 ± 1.6
VQGGALEDSQLVAGVAFKK	499.26 ± 4.6	546.92 ± 0.83
LRQQLQAK	346.98 ± 0.88	414.5 ± 11
RLDINTNTYTSQDLK		533.11 ± 1
AAGQPYEQHAK	373.09 ± 0.48	423.62 ± 1.7
LSQEDPDYGIR	376.56 ± 0.14	
GEAGPTGPQGEPGVRGIR		495.75 ± 4.4
GDQGEPGPSGNPGK	342.01 ± 0.23	
ITASLCDLKSR	397.44 ± 4.9	460.65 ± 3.9
IVFSGNLFQHQEDSKK	493.09 ± 3.3	531.43 ± 2
YSSSSIPEPFGSRGSPR	433.42	521.94 ± 0.21
GAEKTEVAEPR	369.12 ± 1.5	445.67 ± 5
STGLELETPSLVPVKK	457.57 ± 5.2	520.54 ± 2.5
DFDTALKHYDK	391.79 ± 0.64	447.79 ± 3.3
LSTPPPLAEEEGLASR	436.07 ± 0.65	482.68 ± 0.86
AAYQAAIRGVGSAQSR	436.77 ± 1.2	509.17 ± 1.3
VGYPGPSGPLGAR	357.93 ± 0.58	439.38 ± 0.85
ASAISIKLGSSK	373.11 ± 0.93	446.31 ± 5.8
AYGELPEHAK	366.13 ± 0.54	441.2 ± 1.1
DASTLQSQKAEGTGDAK	442.88 ± 2.3	495.18 ± 2.5
GVPRGVHLGSQGLQR	424.25	484.7 ± 1.8
CQGGQETQEYR	370.06 ± 0.16	

Substance	collision cross section (charge state: 2) [Å²]	collision cross section (charge state: 3) [Å²]
DYNVTANSK	328.46 ± 2	
GGGYGGDRGGYGGDR	380.24	463.21 ± 0.23
GSGLGARGSSYGVTSTESYK	471.67	515.78 ± 1.1
VLDSGAPIKIPVGPETLGR	485.73 ± 3	510.9 ± 2.1
LVFDEYLK	354.45 ± 0.59	
ASDTSSETVFGKR	399.16 ± 2.1	477.62 ± 3.6
RGVGAGAIAK	327.01 ± 0.73	
LQIASDENYK	357.85 ± 0.48	
ATAVVDGAFK	329.06 ± 0.69	
SGNLTEDDKHNNAK	412.58 ± 1.5	490.18 ± 3.5
SQLANTEPTK	350.96 ± 0.68	
SYVDTGGVSR	337.16 ± 0.15	
GNPGVGTQGPR	333.35 ± 8.7	
VEPGSLESSPGLGRGR	425.39 ± 1.8	497.45 ± 0.11
GGRGTPGK	284.56 ± 17	
VGEFSGANKEK	374.9 ± 0.4	443.03 ± 4.2
GLPGPPGPQGESR	356.03 ± 0.79	
PATSYVR	307.47 ± 0.15	
GRGTSQLAEGATAK	389.78 ± 0.35	463.88 ± 3.2
SFEDIHQYR	359.99 ± 0.48	450.82 ± 1.1
GEVQVSDKER	363.87 ± 0.37	439.27 ± 4.5
DAEAAEATAEGALKAEK	458.36 ± 2.4	544.24 ± 2.9
PPGFSPFR	328.84 ± 0.79	
GGGFGAHGRGR	350.63 ± 2.6	420.87 ± 5.1
GTISAPGKVVTAAAQAK	464.56 ± 3.2	518.69 ± 4.3
DSRGGGGNFGPGPGSNFR		474.13 ± 0.75
